Assay results as given in US20030105278A1 (MERK, published 2003).
Where two headings read alike, the source gives them in different places. Bridges are numbered along the chain shown (N, C = ends). Where no end group is shown, it is not given here.

Assays:
[1] = target: T1, human MCH receptor expressed from the open reading frame cDNA SEQ. ID. NO. 1 in 293-AEQ17 cells (human, UniProt Q99705 1-353); experiment: cell-based or functional assay
[2] = target: T2, human MCH receptor (membranes from a stable CHO or HEK-293 cell line) (human, UniProt Q99705 1-353); experiment: competition vs [125I]-human MCH (Phe13,Tyr19); human MCH receptor cell membranes (Example 3)
T2 construct: whole, on cells; also called cloned human MCH receptor (CHO clone)

[3] = target: T1, human MCH receptor expressed from the …; experiment: cell-based or functional assay; remark: listed apart in the source
[4] = target: T2, human MCH receptor (membranes from a …); experiment: competition vs [125I]-human MCH (Phe13,Tyr19); human MCH receptor cell membranes (Example 3); remark: listed apart in the source
[5] = target: T1, human MCH receptor expressed from the …; experiment: cell-based or functional assay; remark: listed apart in the source
[6] = target: T1, human MCH receptor expressed from the …; experiment: cell-based or functional assay; remark: listed apart in the source
[7] = target: T1, human MCH receptor expressed from the …; experiment: cell-based or functional assay; remark: listed apart in the source
[8] = target: T1, human MCH receptor expressed from the …; experiment: cell-based or functional assay; remark: listed apart in the source
[9] = target: T1, human MCH receptor expressed from the …; experiment: cell-based or functional assay; remark: listed apart in the source
[10] = target: T2, human MCH receptor (membranes from a …); experiment: SPA competition vs [125I]-human MCH (Phe13,Tyr19); human MCH receptor cell membranes

T1 sequence (Q99705 whole entry): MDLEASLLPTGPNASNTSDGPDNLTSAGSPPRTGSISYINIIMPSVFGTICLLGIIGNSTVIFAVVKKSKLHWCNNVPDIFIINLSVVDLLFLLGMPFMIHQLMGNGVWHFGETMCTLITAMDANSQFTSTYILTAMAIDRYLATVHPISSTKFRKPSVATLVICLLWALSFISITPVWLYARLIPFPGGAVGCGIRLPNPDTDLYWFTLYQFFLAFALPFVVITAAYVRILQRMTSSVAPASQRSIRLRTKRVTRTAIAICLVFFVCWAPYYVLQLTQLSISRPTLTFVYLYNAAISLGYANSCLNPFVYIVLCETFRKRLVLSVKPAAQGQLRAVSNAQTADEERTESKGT
T2 sequence (Q99705 whole entry): as above

B1: MCH analog SEQ. ID. NO. 34 (position 6: Ac-Asn) (peptide)
peptide: NCMLGRVYRPC
modifications: Ac-Asn at position 6 (N-terminal acetyl); C-terminal amide, Cys-Cys disulfide as in SEQ. ID. NO. 7
notes: ID; NO; 7 peptide; MCH position numbering
With B1 the Activation % [1] was 96%, the “EC50” value [1] was 150 nM and the IC50 [2] was 2.6 nM.

B2: MCH analog SEQ. ID. NO. 33 (position 6: Ac-Pro) (peptide)
peptide: PCMLGRVYRPC
modifications: Ac-Pro at position 6 (N-terminal acetyl); C-terminal amide, Cys-Cys disulfide as in SEQ. ID. NO. 7
notes: as for B1
B2 was tested, and the Activation % [1] was 133%, the “EC50” value [1] was 59 nM and the IC50 [2] was 3.4 nM.

B3: MCH analog SEQ. ID. NO. 50 (position 10: Pro) (peptide)
peptide: Ac-RCMLPRVYRPC-NH2
modifications: disulfide 2-11 (inferred)
notes: as for B1
In the case of B3, the Activation % [3] is reported as 4%, the “EC50” value [3] is reported as 519 nM and the IC50 [4] is reported as 700 nM.

B4: MCH analog SEQ. ID. NO. 53 (position 10: Lys) (peptide)
peptide: Ac-RCMLKRVYRPC-NH2
modifications: disulfide 2-11 (inferred)
notes: as for B1
With B4 the Activation % [3] was 25%, the “EC50” value [3] was 4500 nM and the IC50 [4] was 110 nM.

B5: MCH analog SEQ. ID. NO. 54 (position 10: Glu) (peptide)
peptide: Ac-RCMLERVYRPC-NH2
modifications: disulfide 2-11 (inferred)
notes: as for B1
B5 was tested, and the Activation % [3] was 12%, the “EC50” value [3] was greater than 10000 nM and the IC50 [4] was 190 nM.

B6: MCH analog SEQ. ID. NO. 42 (position 6: Ac-D-Nle) (peptide)
peptide: XCMLGRVYRPC
modifications: Ac-D-Nle at position 6; C-terminal amide, Cys-Cys disulfide as in SEQ. ID. NO. 7
notes: as for B1
For B6, the Activation % [1] was 97%, the “EC50” value [1] was 110 nM and the IC50 [2] was 1.2 nM.

B7: MCH analog SEQ. ID. NO. 59 (position 10: D-Lys) (peptide)
peptide: RCMLXRVYRPC
modifications: D-Lys at position 10; N-terminal acetyl, C-terminal amide, Cys-Cys disulfide as in SEQ. ID. NO. 7
With B7 the “EC50” value [3] was greater than 10000 nM.

B8: MCH analog SEQ. ID. NO. 30 (Sar^15) (peptide)
peptide: RCMLGRVYRXC
modifications: sarcosine at position 15; N-terminal acetyl, C-terminal amide, Cys-Cys disulfide as in SEQ. ID. NO. 7
In the case of B8, the Activation % [5] is reported as 113% and the “EC50” value [5] is reported as 25 nM.

B9: MCH analog SEQ. ID. NO. 57 (position 10: D-Pro) (peptide)
peptide: RCMLXRVYRPC
modifications: D-Pro at position 10; N-terminal acetyl, C-terminal amide, Cys-Cys disulfide as in SEQ. ID. NO. 7
notes: as for B1
In the case of B9, the Activation % [3] is reported as 90%, the “EC50” value [3] is reported as 190 nM and the IC50 [4] is reported as 1.2 nM.

B10: MCH analog SEQ. ID. NO. 29 (N-Me-Arg^14) (peptide)
peptide: RCMLGRVYXPC
modifications: N-methyl-arginine at position 14; N-terminal acetyl, C-terminal amide, Cys-Cys disulfide as in SEQ. ID. NO. 7
B10 was tested, and the “EC50” value [5] was greater than 1000 nM.

B11: MCH analog SEQ. ID. NO. 43 (position 6: Ac-D-Pro) (peptide)
peptide: XCMLGRVYRPC
modifications: Ac-D-Pro at position 6; C-terminal amide, Cys-Cys disulfide as in SEQ. ID. NO. 7
In the case of B11, the Activation % [1] is reported as 96%.

For DFDMLRCMLGRVYRPCWQV (disulfide 7-16) [mammalian MCH (SEQ. ID. NO. 11)], the “% Activation at 10 µM” value [6] was 100%, the Activation % [7] was 100% and the Activation % [5] was 100%. The Activation % [1] was 100%, the Activation % [3] was 100% and the Activation % [8] was 100%. It also gave an Activation % [9] of 100%.

B12: MCH analog SEQ. ID. NO. 24 (D-Cys^16) (peptide)
peptide: RCMLGRVYRPX
modifications: D-Cys^16; N-terminal acetyl, C-terminal amide, Cys-Cys disulfide as in SEQ. ID. NO. 7
Work on B12 yielded an Activation % [7] of 76%.

B13: MCH analog SEQ. ID. NO. 55 (position 10: D-Leu) (peptide)
peptide: RCMLXRVYRPC
modifications: D-Leu at position 10; N-terminal acetyl, C-terminal amide, Cys-Cys disulfide as in SEQ. ID. NO. 7
B13 was tested, and the Activation % [3] was 23%.

B14: MCH analog SEQ. ID. NO. 49 (position 10: Nle) (peptide)
peptide: RCMLXRVYRPC
modifications: norleucine at position 10; N-terminal acetyl, C-terminal amide, Cys-Cys disulfide as in SEQ. ID. NO. 7
Work on B14 yielded an Activation % [3] of 106%.

For DFAMLRCMLGRVFRPCWQY (disulfide 7-16 (inferred)), the “% Activation at 10 µM” value [6] was 62.2% and the IC50 [10] was 0.5 nM.

B15: MCH analog SEQ. ID. NO. 65 (position 13: (2′)Nal) (peptide)
peptide: RCMLGRVXRPC
modifications: (2′)-naphthylalanine at position 13; N-terminal acetyl, C-terminal amide, Cys-Cys disulfide as in SEQ. ID. NO. 7
B15 was tested, and the Activation % [8] was 105%.

B16: MCH analog SEQ. ID. NO. 67 (position 13: Phe(pNH2)) (peptide)
peptide: RCMLGRVXRPC
modifications: Phe(pNH2) at position 13; N-terminal acetyl, C-terminal amide, Cys-Cys disulfide as in SEQ. ID. NO. 7
For B16, the Activation % [8] was 88%.

B17: MCH analog SEQ. ID. NO. 28 (N-Me-Arg^11) (peptide)
peptide: RCMLGXVYRPC
modifications: N-methyl-arginine at position 11; N-terminal acetyl, C-terminal amide, Cys-Cys disulfide as in SEQ. ID. NO. 7
For B17, the Activation % [5] was 110%.

B18: MCH analog SEQ. ID. NO. 68 (position 13: Phe(pCOOH)) (peptide)
peptide: RCMLGRVXRPC
modifications: Phe(pCOOH) at position 13; N-terminal acetyl, C-terminal amide, Cys-Cys disulfide as in SEQ. ID. NO. 7
In the case of B18, the “EC50” value [8] is reported as greater than 10000 nM.

In the case of DFDXLRCXLGRVYRPCWQV (norleucine (Nle) at positions 4 and 8; cyclization (S-S) between the two Cys), the “% Activation at 10 µM” value [6] is reported as 65.9%.

B19: MCH analog SEQ. ID. NO. 16 (D-Cys^7) (peptide)
peptide: RXMLGRVYRPC
modifications: D-Cys^7; N-terminal acetyl, C-terminal amide, Cys-Cys disulfide as in SEQ. ID. NO. 7
Work on B19 yielded an Activation % [7] of 34%.
